For six molecules, log2_FC results are on record in PMC13376213, “Systematic discovery of motif-based interactions of the auxiliary domains of USP family deubiquitinases” (Nature Communications, 2026).

For one experiment, the system named is FLAG-USP33. The experiment in a line: IP-MS of FLAG-USP33 and variants vs empty vector. The class given is cell-based, human. As to the method: For transfection, 1x10^6 HEK293 cells were seeded in 10 cm dishes with DMEM, 10% FBS, 1% L-G (without antibiotic) medium, incubated at 37 °C, with 5 % CO2 for 24 h. Cells were transfected with a transfection mix containing […] of Opti-MEM (Thermo Fisher Scientific), 20 μL of PEI stock (1 mg/mL) and […] of the desired cDNA. For co-transfection, 2.5 μg of DNA of each plasmid was used. The mix was vortexed for 15 s and incubated at room temperature for 15–20 min. The transfection mix was added to the dish and gently mixed. Plates were incubated at 37 °C for 36–48 h before harvesting. For USP33 constructs, 5 μM Bortezomib (proteasome inhibitor) was added 4 hours before harvesting the cells.
FLAG fusion proteins were immunoprecipitated from HEK293 cells transfected with plasmids encoding the protein of interest using the anti-FLAG M2 affinity gel from Sigma-Aldrich. Cell pellets were lysed with 100–200 μL/per dish lysis buffer (Pierce RIPA buffer, 1X protease inhibitor (Roche), 50 unit/μL of Benzonase Nuclease) rotating at 4 °C for 30–45 min. […] The cell lysate was clarified by centrifugation at 17,000 x g, at 4 °C for 12 min, and the supernatant was transferred to a clean, pre-chilled low-binding Eppendorf tube. […] The IP samples were centrifuged at 6500 x g at 4 °C for 30 s. The supernatant containing the unbound proteins was transferred to a clean tube. The resin was washed three times with 500 μL of TBS, centrifuged at 6500 x g at 4 °C for 30 s. The bound FLAG fusion protein was eluted with 100 μL of 150 ng/μL 3X FLAG peptide (Sigma) in TBS and incubated in the cold room for 1 h or overnight. The tube was centrifuged at 6500 x g at 4 °C for 30 s; the eluted proteins were transferred to a clean tube. The eluted proteins were prepared for analysis by western blot or Mass Spectrometry.
Immunoprecipitation (IP) was carried out as described above; four technical replicates of each IP condition were performed, and the empty vector was used as a negative control. The eluted protein was processed following the Strap-micro protocol (Protifi). The IP elution containing 1–100 μg protein was 1:1 mixed with 2X lysis buffer (10% SDS, 100 mM TEAB pH 8.5). […] Samples were vortexed, mixed with 165 μL of 100 mM TEAB in 90% methanol, and passed through an S-Trap micro column at 4000 g for 30 s to trap the proteins. The column was washed with 150 μL of 100 mM TEAB in 90% methanol (at 4,000 x g for 30 seconds) three times. The S-Trap column was centrifuged again and transferred to a clean 2 mL tube for digestion with 20 μL of digestion buffer (1 μg trypsin per 10 μg sample in 50 mM TEAB), at 37 °C overnight in a thermomixer without shaking. The digested peptides were eluted with […] of 50 mM TEAB in water, […] of 0.2 % formic acid in water, and […] of 50 % acetonitrile in water, centrifuging at 4000 x g for 1 min each time. The three elutions were pooled in a low-binding tube, placed on dry ice until frozen, dried in a SpeedVac vacuum (Thermo Scientific), and proceeded with the LCMS analysis.
Eluted peptides were resuspended in water supplemented with 0.015% dodecyl maltoside and 0.1% formic acid and were injected on a Vanquish Neo UHPLC System operating in trap and elute mode coupled to an Orbitrap Astral Mass Spectrometer (Thermo Fisher Scientific). […] Eluted peptides were analyzed using data-independent acquisition mode on the mass spectrometer.
Peptides were searched against the Uniprot Swissprot Human database (released on 02/01/2023) supplemented with the USP20 and USP33 mutants using DiaNN (v1.9.0)[62] operating in library-free mode. Data filtering and statistical analysis were carried out in Python (v3.9.0) using the packages pandas, numpy, sklearn, scipy, rpy2, Plotnine, and Plotly and R (v4.4.3) using the package limma.
Protein groups identified with a single peptide or quantified in fewer than three replicates in at least 1 condition were filtered out. […]

The test system of a further experiment is FLAG-USP20. Briefly: IP-MS of FLAG-USP20 and variants vs empty vector. The class given is cell-based, human.
Where [1] appears, read: IP-MS, FLAG-USP33-ΔDUSP2 vs EV, comparison bh_2 Sample_Limma_ImpMedInt_USP33_DUSP2_domain/EV.
[2] abbreviates: IP-MS, FLAG-USP33 vs EV, comparison USP33_wt/EV, Limma.
Setting [3] is: Table S7c USP33 MS_and_motif, bait USP33.
Where [4] appears, read: IP-MS, FLAG-USP33-ΔUBP vs EV, comparison bh_2 Sample_Limma_ImpMedInt_USP33_UBP_domain/EV.
[5] abbreviates: IP-MS, FLAG-USP33 UBP mutant vs EV, comparison USP33_E86K_D90R/EV, Limma.

Method for FLAG-USP20: For transfection, 1x10^6 HEK293 cells were seeded in 10 cm dishes with DMEM, 10% FBS, 1% L-G (without antibiotic) medium, incubated at 37 °C, with 5 % CO2 for 24 h. Cells were transfected with a transfection mix containing 970 mL of Opti-MEM (Thermo Fisher Scientific), 20 μL of PEI stock (1 mg/mL) and 5 mg of the desired cDNA. For co-transfection, 2.5 μg of DNA of each plasmid was used. The mix was vortexed for 15 s and incubated at room temperature for 15–20 min. The transfection mix was added to the dish and gently mixed. Plates were incubated at 37 °C for 36–48 h before harvesting. For USP33 constructs, 5 μM Bortezomib (proteasome inhibitor) was added 4 hours before harvesting the cells.
FLAG fusion proteins were immunoprecipitated from HEK293 cells transfected with plasmids encoding the protein of interest using the anti-FLAG M2 affinity gel from Sigma-Aldrich. […] The cell lysate was clarified by centrifugation at 17,000 x g, at 4 °C for 12 min, and the supernatant was transferred to a clean, pre-chilled low-binding Eppendorf tube. […] The IP samples were centrifuged at 6500 x g at 4 °C for 30 s. The supernatant containing the unbound proteins was transferred to a clean tube. The resin was washed three times with 500 μL of TBS, centrifuged at 6500 x g at 4 °C for 30 s. The bound FLAG fusion protein was eluted with 100 μL of 150 ng/μL 3X FLAG peptide (Sigma) in TBS and incubated in the cold room for 1 h or overnight. The tube was centrifuged at 6500 x g at 4 °C for 30 s; the eluted proteins were transferred to a clean tube. The eluted proteins were prepared for analysis by western blot or Mass Spectrometry.
Immunoprecipitation (IP) was carried out as described above; four technical replicates of each IP condition were performed, and the empty vector was used as a negative control. The eluted protein was processed following the Strap-micro protocol (Protifi). The IP elution containing 1–100 μg protein was 1:1 mixed with 2X lysis buffer (10% SDS, 100 mM TEAB pH 8.5). […] Samples were vortexed, mixed with 165 μL of 100 mM TEAB in 90% methanol, and passed through an S-Trap micro column at 4000 g for 30 s to trap the proteins. The column was washed with 150 μL of 100 mM TEAB in 90% methanol (at 4,000 x g for 30 seconds) three times. The S-Trap column was centrifuged again and transferred to a clean 2 mL tube for digestion with 20 μL of digestion buffer (1 μg trypsin per 10 μg sample in 50 mM TEAB), at 37 °C overnight in a thermomixer without shaking. The digested peptides were eluted with 40 mL of 50 mM TEAB in water, 40 mL of 0.2 % formic acid in water, and 40 mL of 50 % acetonitrile in water, centrifuging at 4000 x g for 1 min each time. The three elutions were pooled in a low-binding tube, placed on dry ice until frozen, dried in a SpeedVac vacuum (Thermo Scientific), and proceeded with the LCMS analysis.
Protein groups identified with a single peptide or quantified in fewer than three replicates in at least 1 condition were filtered out. Protein group intensities were median normalized and missing values were imputed using a Gaussian distribution centered on the median with a downshift of 1.8 and width of 0.3 (relative to the standard deviation).

B1: ILVBL (protein, UniProt A1L0T0 1-632, looked up)
2-hydroxyacyl-CoA lyase 2: METPAAAAPAGSLFPSFLLLACGTLVAALLGAAHRLGLFYQLLHKVDKASVRHGGENVAAVLRAHGVRFIFTLVGGHISPLLVACEKLGIRVVDTRHEVTAVFAADAMARLSGTVGVAAVTAGPGLTNTVTAVKNAQMAQSPILLLGGAASTLLQNRGALQAVDQLSLFRPLCKFCVSVRRVRDIVPTLRAAMAAAQSGTPGPVFVELPVDVLYPYFMVQKEMVPAKPPKGLVGRVVSWYLENYLANLFAGAWEPQPEGPLPLDIPQASPQQVQRCVEILSRAKRPLMVLGSQALLTPTSADKLRAAVETLGVPCFLGGMARGLLGRNHPLHIRENRSAALKKADVIVLAGTVCDFRLSYGRVLSHSSKIIIVNRNREEMLLNSDIFWKPQEAVQGDVGSFVLKLVEGLQGQTWAPDWVEELREADRQKEQTFREKAAMPVAQHLNPVQVLQLVEETLPDNSILVVDGGDFVGTAAHLVQPRGPLRWLDPGAFGTLGVGAGFALGAKLCRPDAEVWCLFGDGAFGYSLIEFDTFVRHKIPVMALVGNDAGWTQISREQVPSLGSNVACGLAYTDYHKAAMGLGARGLLLSRENEDQVVKVLHDAQQQCRDGHPVVVNILIGRTDFRDGSIAV
In the case of B1, the log2_FC came out at 1.755 in the experiment with FLAG-USP33 (setting [1]), 1.749 in the experiment on FLAG-USP33 (setting [2]) and 1.749 in the experiment with FLAG-USP33 (setting [3]).

B2: IFT56 (protein, UniProt A0AVF1 1-554, looked up)
Intraflagellar transport …: MMLSRAKPAVGRGVQHTDKRKKKGRKIPKLEELLSKRDFTGAITLLEFKRHVGEEEEDTNLWIGYCAFHLGDYKRALEEYENATKEENCNSEVWVNLACTYFFLGMYKQAEAAGFKASKSRLQNRLLFHLAHKFNDEKKLMSFHQNLQDVTEDQLSLASIHYMRSHYQEAIDIYKRILLDNREYLALNVYVALCYYKLDYYDVSQEVLAVYLQQIPDSTIALNLKACNHFRLYNGRAAEAELKSLMDNASSSFEFAKELIRHNLVVFRGGEGALQVLPPLVDVIPEARLNLVIYYLRQDDVQEAYNLIKDLEPTTPQEYILKGVVNAALGQEMGSRDHMKIAQQFFQLVGGSASECDTIPGRQCMASCFFLLKQFDDVLIYLNSFKSYFYNDDIFNFNYAQAKAATGNTSEGEEAFLLIQSEKMKNDYIYLSWLARCYIMNKKPRLAWELYLKMETSGESFSLLQLIANDCYKMGQFYYSAKAFDVLERLDPNPEYWEGKRGACVGIFQMIIAGREPKETLREVLHLLRSTGNTQVEYMIRIMKKWAKENRVSI
Take B2: the results for the log2_FC in the experiment with FLAG-USP33 (setting [1]) and in the experiment on FLAG-USP33 (setting [4]) were 3.226 and 2.888, respectively.

B3: GTPBP10 (protein, UniProt A4D1E9 1-387, looked up)
GTP-binding protein 10: MVHCSCVLFRKYGNFIDKLRLFTRGGSGGMGYPRLGGEGGKGGDVWVVAQNRMTLKQLKDRYPRKRFVAGVGANSKISALKGSKGKDCEIPVPVGISVTDENGKIIGELNKENDRILVAQGGLGGKLLTNFLPLKGQKRIIHLDLKLIADVGLVGFPNAGKSSLLSCVSHAKPAIADYAFTTLKPELGKIMYSDFKQISVADLPGLIEGAHMNKGMGHKFLKHIERTRQLLFVVDISGFQLSSHTQYRTAFETIILLTKELELYKEELQTKPALLAVNKMDLPDAQDKFHELMSQLQNPKDFLHLFEKNMIPERTVEFQHIIPISAVTGEGIEELKNCIRKSLDEQANQENDALHKKQLLNLWISDTMSSTEPPSKHAVTTSKMDII
With B3, the log2_FC in the experiment on FLAG-USP33 (setting [4]) is recorded as 2.53.

B4: SNAP23 (protein, UniProt O00161 1-211, looked up)
Synaptosomal-associated …: MDNLSSEEIQQRAHQITDESLESTRRILGLAIESQDAGIKTITMLDEQKEQLNRIEEGLDQINKDMRETEKTLTELNKCCGLCVCPCNRTKNFESGKAYKTTWGDGGENSPCNVVSKQPGPVTNGQLQQPTTGAASGGYIKRITNDAREDEMEENLTQVGSILGNLKDMALNIGNEIDAQNPQIKRITDKADTNRDRIDIANARAKKLIDS
In the case of B4, in the experiment with FLAG-USP20 (IP-MS, FLAG-USP20-ΔDUSP2 vs EV, comparison bh_2 Sample_Limma_ImpMedInt_USP20_DUSP2_domain/EV), the log2_FC was determined as 6.953.

B5: TMEM223 (protein, UniProt A0PJW6 1-202, looked up)
Transmembrane protein 223: MAAPWRRWPTGLLAVLRPLLTCRPLQGTTLQRDVLLFEHDRGRFFTILGLFCAGQGVFWASMAVAAVSRPPVPVQPLDAEVPNRGPFDLRSALWRYGLAVGCGAIGALVLGAGLLFSLRSVRSVVLRAGGQQVTLTTHAPFGLGAHFTVPLKQVSCMAHRGEVPAMLPLKVKGRRFYFLLDKTGHFPNTKLFDNTVGAYRSL
For the molecule B5, the log2_FC came out at 4.626 with FLAG-USP33 (setting [1]); 4.59 in the experiment with FLAG-USP33 (setting [4]); 4.422 in the experiment with FLAG-USP33 (setting [5]); 4.38 in the experiment with FLAG-USP33 (setting [2]); 4.38 in the experiment with FLAG-USP33 (setting [3]); 4.865 with FLAG-USP20 (IP-MS, FLAG-USP20-ΔUBP vs EV, comparison bh_2 Sample_Limma_ImpMedInt_USP20_UBP_domain/EV). The log2_FC in the experiment with FLAG-USP20 (IP-MS, FLAG-USP20 vs EV, comparison USP20_wt/EV, Limma) stood at 4.082; in the experiment with FLAG-USP20 (Table S7b USP20 MS_and_motif, bait USP20), 4.082.

B6: BLTP3B (protein, UniProt A0JNW5 1-1464, looked up)
Bridge-like lipid transfer …: MAGIIKKQILKHLSRFTKNLSPDKINLSTLKGEGELKNLELDEEVLQNMLDLPTWLAINKVFCNKASIRIPWTKLKTHPICLSLDKVIMEMSTCEEPRSPNGPSPIATASGQSEYGFAEKVVEGISVSVNSIVIRIGAKAFNASFELSQLRIYSVNAHWEHGDLRFTRIQDPQRGEVLTFKEINWQMIRIEADATQSSHLEIMCAPVRLITNQSKIRVTLKRRLKDCNVIATKLVLILDDLLWVLTDSQLKAMVQYAKSLSEAIEKSTEQRKSMAPEPTQSSTVVASAQQVKTTQTSNAPDVNDAIVKLFNDFDVKETSHHLVISHLDLHICDDIHAKEKESNRRITGGAMQLSFTQLTIDYYPYHKAGDSCNHWMYFSDATKTKNGWANELLHEFECNVEMLKQAVKDHNVGSPPKSPTHASPQHTQTEKDYPLKGTCRTPSVLSQQSKAKLMSSSVVVRLADFNIYQVSTAEQCRSSPKSMICCNKKSLYLPQEMSAVYIEFTEYYYPDGKDFPIPSPNLYSQLNALQFTVDERSILWLNQFLLDLKQSLNQFMAVYKLNDNSKSDEHVDVRVDGLMLKFVIPSEVKSECHQDQPRAISIQSSEMIATNTRHCPNCRHSDLEALFQDFKDCDFFSKTYTSFPKSCDNFNLLHPIFQRHAHEQDTKMHEIYKGNITPQLNKNTLKTSAATDVWAVYFSQFWIDYEGMKSGKGRPISFVDSFPLSIWICQPTRYAESQKEPQTCNQVSLNTSQSESSDLAGRLKRKKLLKEYYSTESEPLTNGGQKPSSSDTFFRFSPSSSEADIHLLVHVHKHVSMQINHYQYLLLLFLHESLILLSENLRKDVEAVTGSPASQTSICIGILLRSAELALLLHPVDQANTLKSPVSESVSPVVPDYLPTENGDFLSSKRKQISRDINRIRSVTVNHMSDNRSMSVDLSHIPLKDPLLFKSASDTNLQKGISFMDYLSDKHLGKISEDESSGLVYKSGSGEIGSETSDKKDSFYTDSSSILNYREDSNILSFDSDGNQNILSSTLTSKGNETIESIFKAEDLLPEAASLSENLDISKEETPPVRTLKSQSSLSGKPKERCPPNLAPLCVSYKNMKRSSSQMSLDTISLDSMILEEQLLESDGSDSHMFLEKGNKKNSTTNYRGTAESVNAGANLQNYGETSPDAISTNSEGAQENHDDLMSVVVFKITGVNGEIDIRGEDTEICLQVNQVTPDQLGNISLRHYLCNRPVGSDQKAVIHSKSSPEISLRFESGPGAVIHSLLAEKNGFLQCHIENFSTEFLTSSLMNIQHFLEDETVATVMPMKIQVSNTKINLKDDSPRSSTVSLEPAPVTVHIDHLVVERSDDGSFHIRDSHMLNTGNDLKENVKSDSVLLTSGKYDLKKQRSVTQATQTSPGVPWPSQSANFPEFSFDFTREQLMEENESLKQELAKAKMALAEAHLEKDALLHHIKKMTVE
B6 displayed a log2_FC with FLAG-USP33 (setting [5]) of 2.646.
